Patent US20090192048A1, “METHOD OF PRODUCING A […] AGENT FOR BINDING A LIGAND” (priority 2005, published 2009)
Ends that are not written are not given here.

Legend:
[1] = pH resistance of peptide 2DOS-2 deposited onto a polypropylene hydrophobic surface; type: physicochemical; conditions: for Retained fluorescence: 100 mM phosphate buffer 30 minutes
Description: The pH resistance of peptide 2DOS-2 (see above) deposited onto a polypropylene hydrophobic surface was investigated:
Twelve 50 μl aliquots of peptide 2DOS-2 in 10 mM tris-HCl (pH 8.0) in 50% (v/v) aqueous acetonitrile were dried down in the wells of a Costar microtitre plate.
The peptide samples were allowed to evaporate to dryness in the dark.
The dried peptide samples in the first eleven wells were incubated with 200 μl of 100 mM phosphate buffer for 30 minutes at room temperature according to the scheme shown in Table 3:
All supernatants were pipetted off and the residual surface-bound peptides in all twelve wells were finally resuspended in 50 μl of 10 mM tris-HCl (pH 8.0) in 50% (v/v) aqueous acetonitrile and the microtitre plate was imaged at 200 μm resolution on a Typhoon Trio Plus variable mode imager (Amersham Biosciences) with the green (532 nm) laser and the 580 BP 30 filter at the PMT voltages indicated below and at normal sensitivity. The scan height was set at +3 mm and the sample was pressed during scanning.
The fluorescence images were analysed using ImageQuant TL v2003.03 (Amersham Biosciences).
Quantification data for peptide 2DOS-2 retention (using data from the 300V scan) are given in Table 8 and graphically in FIG. 19: […]

[2] = Retention of peptides in flat-bottomed polypropylene wells; type: physicochemical; conditions: flat-bottom wells, 500V scan
Procedure, shortened: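 1 μl of 10 μM peptide or TAMRA in 10 mM Tris-HCl pH 8.0/50% acetonitrile dried in the dark in flat- or V-bottomed polypropylene wells. Some wells washed 15 min at RT with 1 M NaCl in 10 mM Tris pH 8.0, others left untreated; all redissolved in 50 μl Tris/acetonitrile and fluorescence imaged at 532 nm excitation, 580 BP 30 filter.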

N-TAMRA-Phe-Asp- Phe-Ala-Phe-Ser- Phe-Lys-Phe-C ({TAMRA}-FDFAFSFKF) [Peptide 2DOS-2]
Untreated fluorescence ([1]; 300V scan, unwashed well): 815,706
Stability of retention on polypropylene over pH (in words) ([1]; pH 4.51 to 8.52): stable over a broad range of pH values
Percent retention ([1]; wash pH 4.51): 83%
Retained fluorescence ([1]; wash pH 4.51, 300V scan): 681,015
Percent retention ([1]; wash pH 5.65): 71%
Retained fluorescence ([1]; wash pH 5.65, 300V scan): 582,482
Percent retention ([1]; wash pH 6.02): 67%
Retained fluorescence ([1]; wash pH 6.02, 300V scan): 548,329
Percent retention ([1]; wash pH 6.25): 67%
Retained fluorescence ([1]; wash pH 6.25, 300V scan): 542,595
Percent retention ([1]; wash pH 6.47): 72%
Retained fluorescence ([1]; wash pH 6.47, 300V scan): 589,528
Percent retention ([1]; wash pH 6.62): 69%
Retained fluorescence ([1]; wash pH 6.62, 300V scan): 566,496
Percent retention ([1]; wash pH 6.79): 71%
Retained fluorescence ([1]; wash pH 6.79, 300V scan): 576,655
Percent retention ([1]; wash pH 6.98): 70%
Retained fluorescence ([1]; wash pH 6.98, 300V scan): 570,653
Percent retention ([1]; wash pH 7.18): 72%
Retained fluorescence ([1]; wash pH 7.18, 300V scan): 586,083
Percent retention ([1]; wash pH 7.47): 75%
Retained fluorescence ([1]; wash pH 7.47, 300V scan): 614,028
Percent retention ([1]; wash pH 8.52): 81%
Retained fluorescence ([1]; wash pH 8.52, 300V scan): 661,781
Percent retention [2]: 93%
Untreated fluorescence ([2]; unwashed): 15,820,680
Retained fluorescence ([2]; washed 15 minutes in 1 M NaCl in 10 mM tris-HCl (pH 8.0)): 14,665,720
